Source: patent publication US20060263802A1 (CRUCELL HOLLAND B V, published 2006)

Tests used:
Test in all cases: PEPSCAN ELISA, looped peptide, 10 ug/ml
[1] = biological target: looped/cyclic peptide … (rabies virus strain ERA)
[2] = biological target: looped/cyclic peptide … (rabies virus strain ERA); remark: listed apart in the source
[3] = biological target: looped/cyclic peptide … (rabies virus strain ERA); remark: listed apart in the source
[4] = biological target: looped/cyclic peptide … (rabies virus strain ERA); remark: listed apart in the source
[5] = biological target: looped/cyclic peptide … (rabies virus strain ERA); remark: listed apart in the source
[6] = biological target: looped/cyclic peptide … (rabies virus strain ERA); remark: listed apart in the source
[7] = biological target: looped/cyclic peptide … (rabies virus strain ERA); remark: listed apart in the source
[8] = biological target: looped/cyclic peptide … (rabies virus strain ERA); remark: listed apart in the source
[9] = biological target: looped/cyclic peptide … (rabies virus strain ERA); remark: listed apart in the source
[10] = biological target: looped/cyclic peptide … (rabies virus strain ERA); remark: listed apart in the source
[11] = biological target: looped/cyclic peptide … (rabies virus strain ERA); remark: listed apart in the source
[12] = biological target: looped/cyclic peptide … (rabies virus strain ERA); remark: listed apart in the source
[13] = biological target: looped/cyclic peptide … (rabies virus strain ERA); remark: listed apart in the source
[14] = biological target: looped/cyclic peptide … (rabies virus strain ERA); remark: listed apart in the source
[15] = biological target: looped/cyclic peptide ADPSTVFKDGDEAED (rabies virus strain ERA)
[16] = biological target: looped/cyclic peptide … (rabies virus strain ERA); remark: listed apart in the source
[17] = biological target: looped/cyclic peptide … (rabies virus strain ERA); remark: listed apart in the source
[18] = biological target: looped/cyclic peptide … (rabies virus strain ERA); remark: listed apart in the source
[19] = biological target: looped/cyclic peptide … (rabies virus strain ERA); remark: listed apart in the source
[20] = biological target: looped/cyclic peptide … (rabies virus strain ERA); remark: listed apart in the source
[21] = biological target: looped/cyclic peptide … (rabies virus strain ERA); remark: listed apart in the source
[22] = biological target: looped/cyclic peptide … (rabies virus strain ERA); remark: listed apart in the source
[23] = biological target: looped/cyclic peptide … (rabies virus strain ERA); remark: listed apart in the source
[24] = biological target: looped/cyclic peptide … (rabies virus strain ERA); remark: listed apart in the source
[25] = biological target: looped/cyclic peptide … (rabies virus strain ERA); remark: listed apart in the source
[26] = biological target: looped/cyclic peptide … (rabies virus strain ERA); remark: listed apart in the source
[27] = biological target: looped/cyclic peptide … (rabies virus strain ERA); remark: listed apart in the source
[28] = biological target: looped/cyclic peptide … (rabies virus strain ERA); remark: listed apart in the source
[29] = biological target: looped/cyclic peptide … (rabies virus strain ERA); remark: listed apart in the source
[30] = biological target: looped/cyclic peptide … (rabies virus strain ERA); remark: listed apart in the source
[31] = biological target: looped/cyclic peptide … (rabies virus strain ERA); remark: listed apart in the source
[32] = biological target: looped/cyclic peptide … (rabies virus strain ERA); remark: listed apart in the source
[33] = biological target: looped/cyclic peptide … (rabies virus strain ERA); remark: listed apart in the source
[34] = biological target: looped/cyclic peptide … (rabies virus strain ERA); remark: listed apart in the source
[35] = biological target: looped/cyclic peptide … (rabies virus strain ERA); remark: listed apart in the source
[36] = biological target: looped/cyclic peptide … (rabies virus strain ERA); remark: listed apart in the source
[37] = biological target: looped/cyclic peptide … (rabies virus strain ERA); remark: listed apart in the source
[38] = biological target: looped/cyclic peptide … (rabies virus strain ERA); remark: listed apart in the source
[39] = biological target: looped/cyclic peptide … (rabies virus strain ERA); remark: listed apart in the source
[40] = biological target: looped/cyclic peptide … (rabies virus strain ERA); remark: listed apart in the source
[41] = biological target: looped/cyclic peptide … (rabies virus strain ERA); remark: listed apart in the source
[42] = biological target: looped/cyclic peptide … (rabies virus strain ERA); remark: listed apart in the source
[43] = biological target: looped/cyclic peptide … (rabies virus strain ERA); remark: listed apart in the source
[44] = biological target: looped/cyclic peptide … (rabies virus strain ERA); remark: listed apart in the source
[45] = biological target: looped/cyclic peptide … (rabies virus strain ERA); remark: listed apart in the source
[46] = biological target: looped/cyclic peptide … (rabies virus strain ERA); remark: listed apart in the source
[47] = biological target: looped/cyclic peptide … (rabies virus strain ERA); remark: listed apart in the source
[48] = biological target: looped/cyclic peptide … (rabies virus strain ERA); remark: listed apart in the source
[49] = biological target: looped/cyclic peptide … (rabies virus strain ERA); remark: listed apart in the source
[50] = biological target: looped/cyclic peptide … (rabies virus strain ERA); remark: listed apart in the source
[51] = biological target: looped/cyclic peptide … (rabies virus strain ERA); remark: listed apart in the source
[52] = biological target: looped/cyclic peptide … (rabies virus strain ERA); remark: listed apart in the source
[53] = biological target: looped/cyclic peptide … (rabies virus strain ERA); remark: listed apart in the source
[54] = biological target: looped/cyclic peptide … (rabies virus strain ERA); remark: listed apart in the source
[55] = biological target: looped/cyclic peptide … (rabies virus strain ERA); remark: listed apart in the source
[56] = biological target: looped/cyclic peptide … (rabies virus strain ERA); remark: listed apart in the source
[57] = biological target: looped/cyclic peptide … (rabies virus strain ERA); remark: listed apart in the source
[58] = biological target: looped/cyclic peptide … (rabies virus strain ERA); remark: listed apart in the source
[59] = biological target: looped/cyclic peptide … (rabies virus strain ERA); remark: listed apart in the source
[60] = biological target: looped/cyclic peptide … (rabies virus strain ERA); remark: listed apart in the source
[61] = biological target: looped/cyclic peptide … (rabies virus strain ERA); remark: listed apart in the source

B1: human monoclonal antibody CRJB (antibody, V domains shown)
VH: QITLKETGPTLVKPTQTLTLTCTFSGFSLSTSGVGVGWIRQPPGKALEWVTLIYWDDDKRYSPSLENRVTIRKDTSKNQVALTMTNMDPLDTGTYYCAHRQHISSFPWFDSWGQGTLVTVSS
VL: SYVLTQPPSVSVAPGKTARINCGGNNIEYRSVHWYQQKSGQAPVAVIYDNSDRPSGIPERFSGSKSGNTATLTISRVEAGDEADYYCQVWDISSDVVFGGGTKLTVLG
OD [1]: 88 OD
OD [2]: 94 OD
OD [3]: 93 OD
OD [4]: 93 OD
OD [5]: 94 OD
OD [6]: 91 OD
OD [7]: 106 OD
OD [8]: 76 OD
OD [9]: 92 OD
OD [10]: 103 OD
OD [11]: 104 OD
OD [12]: 96 OD
OD [13]: 112 OD
OD [14]: 99 OD
OD [15]: 72 OD
OD [16]: 88 OD
OD [17]: 42 OD
OD [18]: 85 OD
OD [19]: 93 OD
OD [20]: 85 OD
OD [21]: 85 OD
OD [22]: 99 OD
OD [23]: 58 OD
OD [24]: 110 OD
OD [25]: 87 OD
OD [26]: 87 OD
OD [27]: 107 OD
OD [28]: 79 OD
OD [29]: 113 OD
OD [30]: 134 OD
OD [31]: 92 OD
OD [32]: 97 OD
OD [33]: 104 OD
OD [34]: 85 OD
OD [35]: 79 OD
OD [36]: 101 OD
OD [37]: 87 OD
OD [38]: 92 OD
OD [39]: 86 OD
OD [40]: 90 OD
OD [41]: 98 OD
OD [42]: 104 OD
OD [43]: 113 OD
OD [44]: 100 OD
OD [45]: 79 OD
OD [46]: 85 OD
OD [47]: 91 OD
OD [48]: 89 OD
OD [49]: 100 OD
OD [50]: 104 OD
OD [51]: 104 OD
OD [52]: 111 OD
OD [53]: 116 OD
OD [54]: 98 OD
OD [55]: 85 OD
OD [56]: 97 OD
OD [57]: 92 OD
OD [58]: 86 OD
OD [59]: 98 OD
OD [60]: 93 OD
OD [61]: 64 OD
